Experiments:
Assay in all cases: two-hybrid library CCmax;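 further: natural log of median RNA to DNA barcode read ratio; higher means stronger binding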
4H446-AA = target: T1, 4H446-AA; conditions: mean of both orientations
T1 chain: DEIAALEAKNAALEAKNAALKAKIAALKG

4H3969-AA = target: T2, 4H3969-AA; conditions: mean of both orientations
T2 chain: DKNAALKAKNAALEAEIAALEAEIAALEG

4H483-AA = target: T3, 4H483-AA; conditions: mean of both orientations
T3 chain: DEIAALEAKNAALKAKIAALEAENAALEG

4H464-AA = target: T4, 4H464-AA; conditions: mean of both orientations
T4 chain: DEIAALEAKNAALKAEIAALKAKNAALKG

4H63-AA = target: T5, 4H63-AA; conditions: mean of both orientations
T5 chain: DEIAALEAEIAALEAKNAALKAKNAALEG

4H3939-AA = target: T6, 4H3939-AA; conditions: mean of both orientations
T6 chain: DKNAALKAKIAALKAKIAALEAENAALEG

4H380-AA = target: T7, 4H380-AA; conditions: mean of both orientations
T7 chain: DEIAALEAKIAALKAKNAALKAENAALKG

4H3414-AA = target: T8, 4H3414-AA
T8 chain: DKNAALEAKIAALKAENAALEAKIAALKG

4H3782-AA = target: T9, 4H3782-AA; conditions: mean of both orientations
T9 chain: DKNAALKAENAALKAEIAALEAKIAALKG

4H3595-AA = target: T10, 4H3595-AA; conditions: mean of both orientations
T10 chain: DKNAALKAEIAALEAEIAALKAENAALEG

4H3629-AA = target: T11, 4H3629-AA; conditions: mean of both orientations
T11 chain: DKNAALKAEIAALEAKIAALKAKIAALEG

4H3915-AA = target: T12, 4H3915-AA
T12 chain: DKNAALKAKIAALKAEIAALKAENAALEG

4H3094-AA = target: T13, 4H3094-AA
T13 chain: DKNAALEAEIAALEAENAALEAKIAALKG

4H324-AA = target: T14, 4H324-AA; conditions: mean of both orientations
T14 chain: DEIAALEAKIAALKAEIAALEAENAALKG

4H341-AA = target: T15, 4H341-AA; conditions: mean of both orientations
T15 chain: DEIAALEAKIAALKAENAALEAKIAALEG

4H3449-AA = target: T16, 4H3449-AA; conditions: mean of both orientations
T16 chain: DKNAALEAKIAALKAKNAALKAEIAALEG

4H3619-AA = target: T17, 4H3619-AA; conditions: mean of both orientations
T17 chain: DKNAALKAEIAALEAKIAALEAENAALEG

4H3777-AA = target: T18, 4H3777-AA; conditions: mean of both orientations
T18 chain: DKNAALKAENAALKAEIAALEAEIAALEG

4H3974-AA = target: T19, 4H3974-AA; conditions: mean of both orientations
T19 chain: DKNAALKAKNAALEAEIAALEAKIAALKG

4H432-AA = target: T20, 4H432-AA; conditions: mean of both orientations
T20 chain: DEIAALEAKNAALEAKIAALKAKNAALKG

APC5009-AA = target: T21, APC5009-AA
T21 chain: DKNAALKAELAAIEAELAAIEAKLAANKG

APC8401-AA = target: T22, APC8401-AA; conditions: mean of both orientations
T22 chain: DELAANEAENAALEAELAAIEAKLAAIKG

APC9182-AA = target: T23, APC9182-AA; conditions: mean of both orientations
T23 chain: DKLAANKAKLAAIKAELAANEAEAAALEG

APC9806-AA = target: T24, APC9806-AA; conditions: mean of both orientations
T24 chain: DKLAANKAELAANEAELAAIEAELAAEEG

APC5531-AA = target: T25, APC5531-AA; conditions: mean of both orientations
T25 chain: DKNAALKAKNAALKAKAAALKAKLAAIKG

APC7524-AA = target: T26, APC7524-AA; conditions: mean of both orientations
T26 chain: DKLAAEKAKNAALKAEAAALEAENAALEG

APC9141-AA = target: T27, APC9141-AA; conditions: mean of both orientations
T27 chain: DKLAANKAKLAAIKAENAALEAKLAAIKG

APC6088-AA = target: T28, APC6088-AA; conditions: mean of both orientations
T28 chain: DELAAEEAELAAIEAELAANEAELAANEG

APC8516-AA = target: T29, APC8516-AA; conditions: mean of both orientations
T29 chain: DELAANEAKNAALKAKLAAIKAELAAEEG

APC9291-AA = target: T30, APC9291-AA; conditions: mean of both orientations
T30 chain: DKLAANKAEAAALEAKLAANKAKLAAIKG

APC542-AA = target: T31, APC542-AA; conditions: mean of both orientations
T31 chain: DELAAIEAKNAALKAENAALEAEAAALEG

4H816-AA = target: T32, 4H816-AA; conditions: mean of both orientations
T32 chain: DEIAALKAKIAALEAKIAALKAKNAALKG

4H775-AA = target: T33, 4H775-AA; conditions: mean of both orientations
T33 chain: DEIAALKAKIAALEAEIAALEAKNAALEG

4H87-AA = target: T34, 4H87-AA; conditions: mean of both orientations
T34 chain: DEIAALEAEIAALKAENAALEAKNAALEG

4H510-AA = target: T35, 4H510-AA; conditions: mean of both orientations
T35 chain: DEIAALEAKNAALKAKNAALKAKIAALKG

4H3940-AA = target: T36, 4H3940-AA
T36 chain: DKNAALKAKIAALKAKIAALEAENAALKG

DKNAALEAKIAALKAENAALEAKIAALKG [4H3414-AA]
interaction score (4H446-AA): -0.818 | interaction score (4H3969-AA): -1.31 | interaction score (4H483-AA): 0.796 | interaction score (4H464-AA): 1.47 | interaction score (4H63-AA): -0.187 | interaction score (4H3939-AA): -1.42 | interaction score (4H380-AA): -0.842 | interaction score (4H3414-AA): -0.215 | interaction score (4H3782-AA): -1.23 | interaction score (4H3595-AA): -1.09 | interaction score (4H3629-AA): 0.922

DKNAALEAEIAALEAENAALEAKIAALKG [4H3094-AA]
interaction score (4H446-AA): -0.811 | interaction score (4H3915-AA): -0.623 | interaction score (4H63-AA): -0.753 | interaction score (4H380-AA): 1.51 | interaction score (4H3094-AA): -0.802 | interaction score (4H324-AA): -0.623 | interaction score (4H341-AA): 1.64 | interaction score (4H3449-AA): 2.52 | interaction score (4H3619-AA): -1.6 | interaction score (4H3777-AA): -0.696 | interaction score (4H3629-AA): -0.24 | interaction score (4H3974-AA): -0.861 | interaction score (4H432-AA): 0.441

DKNAALKAELAAIEAELAAIEAKLAANKG [APC5009-AA]
interaction score (APC5009-AA): -1.19 | interaction score (APC8401-AA): -1.26 | interaction score (APC9182-AA): -1.29 | interaction score (APC9806-AA): -1.58 | interaction score (APC5531-AA): -0.726 | interaction score (APC7524-AA): -1.47 | interaction score (APC9141-AA): -1.42 | interaction score (APC6088-AA): -1.37 | interaction score (APC8516-AA): -1.31 | interaction score (APC9291-AA): -1.51 | interaction score (APC542-AA): -1.44

DKNAALKAKIAALKAKIAALEAENAALKG [4H3940-AA]
interaction score (4H816-AA): -0.0778 | interaction score (4H775-AA): -0.249 | interaction score (4H87-AA): -0.615 | interaction score (4H510-AA): -1.47 | interaction score (4H3940-AA): 0.422
